# Measured values taken from patent publication US20240002500A1 (GUANGDONG FAPON BIOPHARMA, published 2024).
# Residue numbers refer to the chain shown, from its start.
# T1: hTIGIT-hFc (human, UniProt Q495A1 22-141)
# T1 construct: also called antigen protein hTIGIT-hFc; human TIGIT recombinant protein carrying a human Fc tag; not shown: human Fc tag
# T1 sequence (looked up): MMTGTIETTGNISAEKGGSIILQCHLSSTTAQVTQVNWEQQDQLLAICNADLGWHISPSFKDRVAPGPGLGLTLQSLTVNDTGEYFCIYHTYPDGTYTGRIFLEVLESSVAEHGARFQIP
# T2: full-length human TIGIT on cells (human, UniProt Q495A1 22-244)
# T2 construct: whole, on cells; The same protein is used for CHO-hTIGIT, PBMC and NK92-hTIGIT; the cells are named under assay; also called CHO-hTIGIT; hTIGIT
# T2 sequence (looked up): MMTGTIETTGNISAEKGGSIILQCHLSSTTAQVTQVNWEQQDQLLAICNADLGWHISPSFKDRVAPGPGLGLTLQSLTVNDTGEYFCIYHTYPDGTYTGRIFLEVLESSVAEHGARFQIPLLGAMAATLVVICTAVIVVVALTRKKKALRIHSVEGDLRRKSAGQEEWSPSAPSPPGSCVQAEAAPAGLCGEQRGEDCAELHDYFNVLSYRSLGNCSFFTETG
# T3: human Tigit extracellular domain recombinant protein hTigit-his (self-produced) (human, UniProt Q495A1 22-141)
# T3 construct: extracellular domain; Self-produced; used in the KD analysis of Embodiment 4; also called human Tigit recombinant protein; not shown: his tag
# T3 sequence (looked up): T1 sequence (looked up)
# B1: 3Tigit-12 mouse monoclonal antibody (antibody, V domains shown)
# VH: QVQLQQSGAELVRPGTSVKMSCKAAGYTFTNYWIGWVKQRPGHGLEWIGDIYPGGGYTNYDEKFKGKATLTADTSSRTAYMQLSSLTSEDSAIYHCVNGGYGSTYGYFDVWGAGTTVTVSS
# VL: DIVMSQSPSSLPVSVGEKVTMSCKSSQSLLFSSDQKNYLAWYQQKPGQSPKLLIYWASTRESGVPDRLTGSGSGTDFTLTISSVKAEDLAVYYCQQYHKYPFTFGGGTKLEIKR
# notes: Mouse monoclonal antibody from hybridoma
# B2: 3Tigit-16 mouse monoclonal antibody (antibody, V domains shown)
# VH: EVQLQQSGPELVKPGASVKMSCKASGFTFTDYFMDWVKQSRGASFEWIGRLNPNNGRTSYNQKFKGKATLTVDKSSSTAYMELNSLTSEDSAVYYCARGDLGRWYFDVWGAGTTVTVSS
# VL: QIVLTQSPAIMSASPGEKVTMTCSASSSVSYMHWYQQKSGTSPKRWIYDTSKLASGVPTRFSGSGSGTSYSLTISSMEAEDAASYFCQQWSSNSLTFGAGTKLELKR
# notes: as for B1
# B3: 3Tigit-29 mouse monoclonal antibody (antibody, V domains shown)
# VH: EVQLQQSGPELVKPGASVKISCKASGYTFTDYNMHWVKQSLGKSLEWIGYVNSFNGNTGYSQKFKSKVTLTVDRSSRTAYMDLRSLTSEDSAVFYCARSSRGGFAYWGQGTLVTVSA
# VL: B2 VL with T59A, G65V, S84T, F86Y
# notes: as for B1
# B4: Tigit-5 mouse monoclonal antibody (antibody, V domains shown)
# VH: QVQLQQPGAELVRPGASVKLSCKASGYSFTSYWMNWVKQRPGQGLEWIGMIRPSDSETRLNQMFKDKATLTVDKSSSTAYMQLSSPTSDDSAVYYCAGIHDYGHGAYWGQGTLVTVSA
# VL: DIQMIQSPASLSVSVGETVTITCRASENIYSNLAWYQQKQGKSPQLLVYAASHLPDGVPSRFSGSGSGTQYSLKINSLQSEDFGSYYCQHFWGTPRTFGGGTKLEIKR
# notes: as for B1
# B5: 14Tigit-1-1 mouse monoclonal antibody (antibody, V domains shown)
# VH: DVQLQESGPGLVKPSQSLSLTCTVTGYSITSDYAWNWIRQFPGNKLEWMGYISYSGSTRSNPSLKSRISITRDTSKNQFFLQLNSMTAEDTATYYCGGWEVRNYYAMDYWGQGTSVTVSS
# VL: DIVMTQSHKFMSTSVGDRVSITCKASQHVSTAVAWYQQKPGQSPKLLIYSASYRYTGVPDRFTGSGSGTDFTFTISSVQAEDLAVYYCQQHYNTPWTFGGGTKLEIKR
# notes: as for B1
# Molecular target: T1, hTIGIT-hFc
# Test: FACS blocking on U2-OS cells; second row of the table; unit from the y axis
# Method: (§1) U2-OS cells to be detected (human osteosarcoma cells, naturally and highly expressing PVR and CD112 by means of detection) were counted; centrifugated at 300 g for 5 min; resuspended with an FCM buffer; and cell density was adjusted to 4E+06 cell/mL for later use. […] According to an experimental design, in each well, 50 μL of the antigen protein and 50 μL of the cell (the volume of each cell added into a 96-well V-shaped plate being 2E+05 cell/well) were respectively added in the 96-well V-shaped plate; and incubation was performed in dark on ice for 30 min. Centrifugation (300 g/5 min) was performed; supernatant was discarded; 200 μL of the FCM buffer was added for washing once; centrifugation (300 g/5 min) was performed; and the supernatant was discarded. The antibody was added to the 96-well V-shaped plate (in 100 μL/well); and incubation was performed in dark on ice for 30 min. Centrifugation (300 g/5 min) was performed; supernatant was discarded; 200 μL of the FCM buffer was added for washing once; centrifugation (300 g/5 min) was performed; and the supernatant was discarded. Secondary antibodies (APC anti-human IgG Fc, 1:500 dilution) were added to the 96-well V-shaped plate (in 100 μL/well); and incubation was performed in dark on ice for 30 min. Centrifugation (300 g/5 min) was performed; supernatant was discarded; 200 μL of the FCM buffer was added for washing once; centrifugation (300 g/5 min) was performed; and the supernatant was discarded. 100 μL of the 1×PBS was added for resuspending, and on-machine detection was performed.
row,Binder,Span (row head not given)
1,B1,555 MFI-APC
2,B2,580 MFI-APC
3,B3,585 MFI-APC

# Molecular target: T2, full-length human TIGIT on cells
# Test: FACS titration on CHO-hTIGIT cells, PE goat anti-mouse IgG
# Method: (§2) The CHO-engineered cells CHO-hTIGIT cells recombinantly expressing full-length human TIGIT to be detected were counted, centrifuged at 300 g for 5 min, resuspended in an FCM buffer and cell density was adjusted to 4E+06 cell/mL for later use. A sample to be detected (including a positive control antibody and a mouse monoclonal antibody) was diluted with the FCM buffer to 20 μg/mL, and then the FCM buffer was used to perform 3× serial dilutions of 12 concentration points; and the isotype control antibody was diluted with the FCM buffer to 20 μg/mL. According to an experimental design, in each well, 50 μL of the antibody and 50 μL of the cell (the amount of each cell added into a 96-well V-shaped plate being 2E+05 cells/well) were respectively added in the 96-well V-shaped plate; and incubation in dark was performed on ice for 30 min. Centrifugation (300 g/5 min) was performed; supernatant was discarded; 200 μL of the FCM buffer was added for washing once; centrifugation (300 g/5 min) was performed; and the supernatant was discarded. […] Centrifugation (300 g/5 min) was performed; supernatant was discarded; 200 μL of the FCM buffer was added once for washing once; centrifugation (300 g/5 min) was performed; and the supernatant was discarded. 100 μL of the 1×PBS was added for resuspending, and on-machine detection was performed.
row,Binder,EC50
1,B4,0.197 nM
2,B1,0.473 nM
3,B2,0.383 nM
4,B3,0.388 nM
5,B5,0.452 nM

# Molecular target: T1, hTIGIT-hFc
# Test: FACS blocking: hTIGIT-hFc bound on U2-OS cells (PVR and CD112), then antibody, APC anti-human IgG Fc; first row of the table, row head not given; unit from the x axis Log[µg/mL]
# Method: as §1
row,Binder,IC50
1,B1,0.543 µg/mL
2,B2,0.636 µg/mL
3,B3,0.628 µg/mL

# Molecular target: T2, full-length human TIGIT on cells
# Test: FACS titration on CHO-hTIGIT cells; table under the plot, unit taken from the x axis Log[nM]
# Method: as §2
row,Binder,EC50
1,B4,0.256 nM
2,B2,0.294 nM
3,B3,0.31 nM

# Molecular target: T1, hTIGIT-hFc
# Test: FACS blocking: hTIGIT-hFc bound on CHO-hCD112 cells, then antibody, APC anti-human IgG Fc; blocked partner CD112; unit from the x axis Log[µg/mL]
# Method: as §1, with “The CHO-engineered cell CHO-hCD112” for “U2-OS”, “recombinantly” for “to be detected (human osteosarcoma cells, naturally and highly”, “full-length human” for “PVR and”, “CD112” for “CD112 by means of detection)”
row,Binder,IC50
1,B4,0.143 µg/mL
2,B1,0.191 µg/mL
3,B2,0.265 µg/mL
4,B3,0.196 µg/mL

# Molecular target: T3, human Tigit extracellular domain …
# Test: BLI (ForteBIO QKe), hTigit-his on anti-Penta-HIS sensor, antibody in solution
# Method: Binding kinetic constant analysis was performed on an anti-hTigit antibody and hTigit with an MD ForteBIO QKe platform.
row,Binder,Kd
1,B4,0.0605 nM
2,B1,0.119 nM
3,B2,0.202 nM
4,B3,0.155 nM
5,B5,0.172 nM
